Measured values as given in patent publication US9309303B2, “Complexation of fatty acid-conjugated molecules with albumin” (The University of the Sciences in Philadelphia, priority 2007, dated 2016).
Ends that are not written are not given here. fluorescein = fluorescein conjugated to the primary amine of the Lys side chain through an MHS ester

Assays:
HSA = HSA (Homo sapiens, UniProt P02768); details: 25 pmol peptide, 100 pmol defatted HSA, 15 minutes, room temperature
Description: The reaction mixture was loaded to 0.5×TBE acrylamide gel and separated under 12 mA current.

HeLa cells [1] = assay: transfection of HeLa cells with peptides in the presence of HSA; assay type: cell-based; details: 250 pmol peptide, 250 pmol HSA
Experimental: Fatty acid-conjugated faTraF peptides and non-conjugated faTraE peptides (250 pmol) were added to separate batches of HeLa cells (24-well plate with 250 μl of EMEM medium). 250 Pmol of HSA was added to the incubation of some wells, but not others. Cells incubated in the presence of HSA and the fatty-acid conjugated peptides were transfected.

[2] = solubility of rHSA purified from Pichia pastoris expression system; assay type: physicochemical
Description: We cloned, expressed and purified this rHSA from a Pichia pastoris yeast rHSA expression system. The protein was soluble and was purified to apparent homogeneity. We confirmed the identity of the purified protein by Western blotting using anti-HSA antibody and anti-c-Myc antibody. The alpha-v-beta-3 integrin binding ability of RGD-HSA was confirmed by co-immunoprecipitation and Western blotting.

[3] = esterase assay, p-nitrophenyl acetate hydrolysis; assay type: biochemical; details: 5 μM p-nitrophenyl acetate, 40 μg protein, pH 7.4, 37° C., 390 nm
Experimental: The reaction of p-nitrophenyl acetate hydrolysis-mediated by rHSA and RGD-rHSA was assessed spectrophotometrically at 390 nm by monitoring the appearance of p-nitrophenol. The reaction mixtures contained 5 μM p-nitrophenyl acetate and 40 μg protein in 67 mM phosphate buffer (pH 7.4). Reactions were performed at 37° C.

HeLa cells [4] = assay: cellular uptake and/or binding of Rhodamine-labeled rHSAs, fluorescent microscopy; assay type: cell-based; details: 50 pmol labeled rHSA
Experimental: It has been reported that there is no αvβ3 type of integrin in HeLa cells. Nonetheless, HeLa cells are still able to bind fibronectin. Similar to the cellular uptake experiments for MDA-MB-435S cells, the fluorescent dye labeled rHSAs (50 pmol for rHSA, RGD-rHSA-FN and RGD-rHSA-4C) were added to cultured HeLa cells (with 250 μl EMEM in 24-well plate). Cellular uptake and/or binding was monitored at 1, 4, and 8 hours after washing with fresh non-labeled medium. Cellular uptake and/or binding of albumin was then visualized using fluorescent microscopy.

αvβ3 integrin = target: T1, αvβ3 integrin (Homo sapiens, UniProt P05106+P06756); assay: αvβ3 integrin-binding assay (co-immunoprecipitation / Ni2+ pull-down, Western blotting); details: co-immunoprecipitation and Western blotting
T1 construct: 300 μg MDA-MD-435S (αvβ3 positive) cell extract; endogenous in cells; host or cells: MDA-MB-435S (printed MDA-MD-435S) cell extract
T1 sequence (P06756 31-889 limits assumed): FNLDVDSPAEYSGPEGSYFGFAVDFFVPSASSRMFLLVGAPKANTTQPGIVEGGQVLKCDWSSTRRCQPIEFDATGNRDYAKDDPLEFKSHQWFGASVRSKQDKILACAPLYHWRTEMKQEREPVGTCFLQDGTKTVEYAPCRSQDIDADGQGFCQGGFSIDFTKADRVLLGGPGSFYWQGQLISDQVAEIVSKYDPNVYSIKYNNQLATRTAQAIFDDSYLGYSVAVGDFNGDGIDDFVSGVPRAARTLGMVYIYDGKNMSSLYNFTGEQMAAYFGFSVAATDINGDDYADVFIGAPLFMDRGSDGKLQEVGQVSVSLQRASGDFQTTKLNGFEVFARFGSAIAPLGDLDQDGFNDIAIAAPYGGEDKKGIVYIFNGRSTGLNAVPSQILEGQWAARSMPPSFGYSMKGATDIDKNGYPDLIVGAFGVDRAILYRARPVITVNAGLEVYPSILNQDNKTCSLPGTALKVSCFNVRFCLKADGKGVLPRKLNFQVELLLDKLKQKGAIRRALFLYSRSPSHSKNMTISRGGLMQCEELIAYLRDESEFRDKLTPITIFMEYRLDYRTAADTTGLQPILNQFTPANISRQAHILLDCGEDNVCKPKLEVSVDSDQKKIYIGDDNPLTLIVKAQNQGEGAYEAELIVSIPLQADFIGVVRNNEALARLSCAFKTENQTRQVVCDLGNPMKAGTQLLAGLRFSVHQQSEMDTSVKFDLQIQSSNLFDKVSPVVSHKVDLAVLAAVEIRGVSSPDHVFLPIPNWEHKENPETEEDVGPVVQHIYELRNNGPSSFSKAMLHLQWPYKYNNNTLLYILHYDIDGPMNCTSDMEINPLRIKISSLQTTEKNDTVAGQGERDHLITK
T1 sequence (P06756 891-1048 partner limits assumed): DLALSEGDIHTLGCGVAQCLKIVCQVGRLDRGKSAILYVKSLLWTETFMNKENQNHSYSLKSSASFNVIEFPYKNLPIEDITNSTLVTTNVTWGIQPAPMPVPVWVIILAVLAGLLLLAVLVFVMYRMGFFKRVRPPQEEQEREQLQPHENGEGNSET
T1 sequence (P05106 27-788): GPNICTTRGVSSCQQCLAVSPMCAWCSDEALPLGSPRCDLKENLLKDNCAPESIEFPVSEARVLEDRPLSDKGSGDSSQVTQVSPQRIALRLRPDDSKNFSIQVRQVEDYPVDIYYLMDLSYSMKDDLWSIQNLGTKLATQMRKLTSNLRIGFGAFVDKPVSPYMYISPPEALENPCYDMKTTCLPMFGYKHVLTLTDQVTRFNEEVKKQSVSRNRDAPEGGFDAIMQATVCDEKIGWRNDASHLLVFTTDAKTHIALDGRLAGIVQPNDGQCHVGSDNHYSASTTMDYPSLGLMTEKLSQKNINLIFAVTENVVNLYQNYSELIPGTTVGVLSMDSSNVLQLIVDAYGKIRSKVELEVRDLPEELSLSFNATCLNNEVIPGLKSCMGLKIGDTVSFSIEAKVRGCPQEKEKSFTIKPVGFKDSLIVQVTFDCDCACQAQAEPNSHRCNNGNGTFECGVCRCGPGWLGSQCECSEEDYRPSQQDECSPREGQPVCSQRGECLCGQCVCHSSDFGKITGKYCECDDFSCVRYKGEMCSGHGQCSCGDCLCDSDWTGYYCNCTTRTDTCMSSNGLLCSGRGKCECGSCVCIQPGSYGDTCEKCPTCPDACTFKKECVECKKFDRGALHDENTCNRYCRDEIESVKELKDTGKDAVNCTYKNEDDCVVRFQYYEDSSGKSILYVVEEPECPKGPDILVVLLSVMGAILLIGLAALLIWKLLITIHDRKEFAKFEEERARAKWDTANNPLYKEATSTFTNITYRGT
Experimental: Lanes 3 and 6 each contained mixture of 300 μg MDA-MD435S cell extract and 1.2 μg of RGD-rHSA (wild type HSA). For the convenience of purification and detection, all rHSAs were fused with c-terminal c-myc and His6 tags. For lane 1, 2, and 3, the αvβ3 complexes were immunoprecipitated with anti-αv antibody (CHEMICON, AB1930). rHSAs associated with αvβ3 were detected by anti-c-myc antibody. […] For lane 4,5, and 6, the poly-HIS-tagged rHSAs were pulled down with Ni2+-charged chelating agarose. αvβ3 Associated with rHSAs was detected by anti-αv antibody (CHEMICON, AB 1930).

With “fatty acid-conjugated faTraF peptide: fluorescein-labeled peptide CHLDAHWKG conjugated at Cys thiol with 16-methanethiosulfonyl hexadecanoic acid: HOOC—(CH2)15—S—S-peptide (not fully specified (residue 1); also: fluorescein-labeled (position not given here))” the “complex with HSA on gel” value (HSA) was “clearly observed” and the “transfection of HeLa cells” value (HeLa cells [1]) was “transfected”.
For “unmodified peptides: peptide CHLDAHWKG (SEQ ID NO: 58) conjugated with fluorescein at Lys, without fatty acid (CHLDAHWK(fluorescein)G) [reference compound]”, the “transfection of HeLa cells” value (HeLa cells [1]) was “can not be observed”.
For “RGD-rHSA-FN: rHSA containing fibronectin RGD sequence (CGRGDSPC) in place of residues 53-62 of HSA”, the “solubility of purified protein” value [2] was “soluble”, the esterase activity [3] was “comparable” and the “effect of RGD sequence on albumin uptake and/or binding” value (HeLa cells [4]) was “mildly stimulated”. For the same substance, the “αvβ3 integrin binding ability / ability to interact” value (αvβ3 integrin) was “confirmed”.
